According to patent publication US20140179896A1 (published 2014):

How the values were obtained:
[1] = biological target: full-length human KDR on cells (human, UniProt P35968 20-1356); assay: cell-based or functional assay
[2] = biological target: T1, human vascular endothelial growth factor receptor-2 Fc chimera (KDR-Fc) (human, UniProt P35968 20-764); assay: radioactive equilibrium binding (assay not given)
T1 construct: range 1-764; also called human VEGFR-2; hKDR; not shown: human IgG1 Fc

[3] = biological target: T2, mouse vascular endothelial growth factor receptor-2 Fc chimera (Flk-1-Fc) (mouse, UniProt P35918 20-762); assay: radioactive equilibrium binding (assay not given)
T2 construct: Purchased from R&D Systems; also called mouse VEGF-R2; not shown: Fc part of the purchased chimera
T2 sequence (P35918 20-762, change not shown): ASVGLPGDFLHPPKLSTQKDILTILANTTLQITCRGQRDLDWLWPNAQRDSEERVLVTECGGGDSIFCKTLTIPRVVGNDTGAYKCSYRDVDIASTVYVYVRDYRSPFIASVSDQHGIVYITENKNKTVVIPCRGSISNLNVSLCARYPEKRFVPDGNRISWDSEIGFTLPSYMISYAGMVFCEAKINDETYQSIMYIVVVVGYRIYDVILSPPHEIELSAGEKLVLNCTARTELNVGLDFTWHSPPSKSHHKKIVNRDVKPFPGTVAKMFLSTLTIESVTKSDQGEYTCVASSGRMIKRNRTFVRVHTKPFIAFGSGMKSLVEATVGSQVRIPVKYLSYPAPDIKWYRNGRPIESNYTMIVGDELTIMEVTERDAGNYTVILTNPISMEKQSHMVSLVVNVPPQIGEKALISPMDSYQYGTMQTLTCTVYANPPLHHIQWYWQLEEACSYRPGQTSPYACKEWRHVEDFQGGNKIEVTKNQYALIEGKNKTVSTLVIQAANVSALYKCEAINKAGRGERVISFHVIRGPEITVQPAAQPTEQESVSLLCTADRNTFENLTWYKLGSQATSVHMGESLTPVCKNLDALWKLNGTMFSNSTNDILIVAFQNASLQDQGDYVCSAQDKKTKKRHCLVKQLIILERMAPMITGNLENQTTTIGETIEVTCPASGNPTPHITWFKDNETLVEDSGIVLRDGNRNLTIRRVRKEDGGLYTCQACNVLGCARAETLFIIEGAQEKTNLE

[4] = biological target: T1, human vascular endothelial growth …; assay: binding to 1 nM KDR-Fc, % of input; radioactive equilibrium binding (assay not given)
How it was run: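 Tracer: ³⁵S-Met protein from reticulocyte lysate, Flag-bead purified, no nucleic acid tail. 0.2/0.5 nM binder + 0–200 nM receptor-Fc, 30° C 1 h, buffer B; Protein A bead capture 10 min RT; 0.1 M KOH elution; scintillation count.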

[5] = biological target: T2, mouse vascular endothelial growth …; assay: binding to 1 nM Flk-1-Fc, % of input; radioactive equilibrium binding (assay not given)
How it was run: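 ³⁵S-Met-labeled binder protein, made by reticulocyte-lysate translation and Flag-purified, held at 0.2 or 0.5 nM with receptor-Fc (0–200 nM) for 1 h at 30° C in buffer B. Complexes captured on Protein A beads, washed, KOH-eluted. Bound signal given as % of input radioactivity minus bead-only background; one-site fit.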

[6] = biological target: T3, murine VEGFR-2/EpoR chimera (flk-1/EpoR fusion, pmKE2) on cells (mouse; human, UniProt P35918 20-762; P19235 251-508, limits assumed); assay: cell-based or functional assay
T3 sequence (P35918 other isoform, or with tags, fused parts or gaps mutant limits assumed, form in doubt): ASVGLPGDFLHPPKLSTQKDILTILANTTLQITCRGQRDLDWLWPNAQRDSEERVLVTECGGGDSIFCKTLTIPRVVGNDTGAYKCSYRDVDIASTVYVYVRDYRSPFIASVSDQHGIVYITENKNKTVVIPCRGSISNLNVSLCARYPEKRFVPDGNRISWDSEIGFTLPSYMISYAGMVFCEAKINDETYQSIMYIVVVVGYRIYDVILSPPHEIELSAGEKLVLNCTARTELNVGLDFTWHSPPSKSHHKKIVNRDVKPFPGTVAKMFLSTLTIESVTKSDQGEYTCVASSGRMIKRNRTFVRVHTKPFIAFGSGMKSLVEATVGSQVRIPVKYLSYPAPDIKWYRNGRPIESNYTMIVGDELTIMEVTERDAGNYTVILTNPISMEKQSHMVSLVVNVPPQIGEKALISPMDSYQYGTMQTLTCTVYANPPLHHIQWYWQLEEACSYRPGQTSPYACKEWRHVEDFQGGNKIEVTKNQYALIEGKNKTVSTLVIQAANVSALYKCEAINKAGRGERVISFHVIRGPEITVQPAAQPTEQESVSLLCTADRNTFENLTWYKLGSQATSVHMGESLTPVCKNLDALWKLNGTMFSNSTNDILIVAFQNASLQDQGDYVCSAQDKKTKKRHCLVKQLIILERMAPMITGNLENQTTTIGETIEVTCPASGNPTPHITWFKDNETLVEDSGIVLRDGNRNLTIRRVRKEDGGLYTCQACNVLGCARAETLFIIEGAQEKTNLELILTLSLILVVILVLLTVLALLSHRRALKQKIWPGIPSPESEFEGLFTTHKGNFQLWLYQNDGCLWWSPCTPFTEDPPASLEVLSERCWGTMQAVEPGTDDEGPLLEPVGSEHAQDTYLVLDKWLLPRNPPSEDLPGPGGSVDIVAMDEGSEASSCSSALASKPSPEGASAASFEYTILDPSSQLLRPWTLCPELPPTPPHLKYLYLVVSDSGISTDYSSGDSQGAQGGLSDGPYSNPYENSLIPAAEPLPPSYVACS

[7] = biological target: human KDR/EpoR fusion (phKE8) on Ba/F3 cells (human, UniProt P35968 20-764; P19235 251-508, limits assumed); assay: cell-based or functional assay
[8] = biological target: T4, full-length human KDR on cells (human, UniProt P35968 20-1356); assay: cell-based or functional assay; remark: listed apart in the source
[9] = biological target: T5, human vascular endothelial growth factor receptor-2 Fc chimera (KDR-Fc) (human, UniProt P35968 20-764); assay: BIAcore, target-Fc immobilized
T5 construct: range 1-764; purchased from R&D Systems; also called hKDR; human VEGF-R2-Fc; not shown: human IgG1 Fc
Procedure: (§1) The binding kinetics of fibronectin-based scaffold proteins binding proteins to the target was measured using BIAcore 2000 biosensor (Pharmacia Biosensor). Human and mouse VEGF-R2-Fc fusions were immobilized onto a CM5 sensor chip and soluble binding proteins were injected at concentrations ranging from 0 to 100 nM in buffer 0 (10 mM HEPES, 150 mM NaCl, 0.005% Tween 20, pH 7.4). Sensorgrams were obtained at each concentration and were evaluated using a program, BIA Evaluation 2.0 (BIAcore), to determine the rate constants kₐ (kₒₙ) and kd (koff.) The affinity constant, KD was calculated from the ratio of rate constants […].

[10] = biological target: T6, mouse vascular endothelial growth factor receptor-2 Fc chimera (Flk-1-Fc) (mouse, UniProt P35918 20-762); assay: BIAcore, target-Fc immobilized
T6 construct: purchased from R&D Systems; also called mouse VEGF-R2-Fc; not shown: Fc part of the purchased chimera
Procedure: as §1
T6 sequence (P35918 20-762, change not shown): as the sequence (P35918 20-762, change not shown) above

[11] = biological target: T4, full-length human KDR on cells; assay: flow cytometry on CHO KDR cells
Procedure: (§2) The functionality of KDR and Flk-1 binding molecules in a cell culture model system was evaluated with E. coli produced binding molecules.
(§3) Binding of fibronectin-based scaffold protein to cell-surface KDR and Flk-1 was analyzed simultaneously on VEGF-R2-expressing and control cells by flow cytometry. CHO-pcDNA3 cells (control) were released from their dishes with trypsin-EDTA, washed in Dulbecco's PBS without calcium and magnesium (D-PBS⁻; Invitrogen), and stained for 30 minutes at 37° C. with 1.5 μM CMTMR (5-(and -6)-(((4-chloromethyl)benzoyl)amino)-tetramethylrhodamine) (Molecular Probes). The cells were washed in D-PBS⁻ and incubated for a further 30 minutes at 37° C., and then resuspended in blocking buffer (D-PBS⁻/10% fetal bovine serum) on ice. CHO-KDR or CHO-Flk cells were treated identically except that CMTMR was omitted. 75,000 of CMTMR-stained CHO-pcDNA3 cells were mixed with an equal number of unstained CHO-KDR or CHO-Flk cells in each well of a V-bottom 96-well plate. All antibodies and fibronectin-based scaffold proteins were diluted in 25 μl/well of blocking buffer, and each treatment was conducted for 1 hour at 4° C. Cell mixtures were stained with His₆-tagged (SEQ ID NO: 235) fibronectin-based scaffold proteins, washed twice with cold D-PBS⁻, and then treated with 2.5 μg/ml anti-His₆ (SEQ ID NO: 235) MAb (R&D Systems), washed, and stained with 4 μg/ml Alexa Fluor 488-conjugated anti-mouse antibody (Molecular Probes). For cells treated with an anti-KDR mouse monoclonal antibody (Accurate Chemical, Westbury, N.Y.) or an anti-flk-1 goat polyclonal antibody (R&D Systems), the anti-His₆ (SEQ ID NO: 235) step was omitted, and antibody binding was detected with the species-appropriate Alexa Fluor 488 conjugated secondary antibody (Molecular Probes). Following staining, cells were resuspended in 200 μl/well D-PBS⁻/1% FBS/1 μg/ml 7-aminoactinomycin D (7-AAD; Molecular Probes) and analyzed by flow cytometry on a FACSCalibur (Becton Dickinson, San Jose, Calif.) equipped with a […].

[12] = biological target: T3, murine VEGFR-2/EpoR chimera (flk-1/EpoR …); assay: flow cytometry on CHO Flk-1 cells
Procedure: as §2, §3

[13] = biological target: T5, human vascular endothelial growth …; assay: radioactive equilibrium binding assay
Procedure: (§4) To prepare ³⁵S-labeled binding proteins for analysis, mRNA was prepared as described above for RNA-protein fusion production but the linker ligation step was omitted. The mRNA was expressed using rabbit reticulocyte lysate translation kit (Ambion) in the presence of ³⁵S-labeled Met at 30° C. for 1 hour. Expressed protein was purified on M2-agarose Flag beads (Sigma) as described above. This procedure produced the encoded protein without the nucleic acid tail. In a direct binding assay, VEGF-R2-Fc fusions in concentrations ranging from 0 to 200 nM were added to a constant concentration of the purified protein (0.2 or 0.5 nM) and incubated at 30° C. for 1 hour in buffer B. The receptor-binder complexes were captured using Protein A magnetic beads for another 10 minutes at room temperature using a Kingfisher™ The beads were washed with six reaction volumes of buffer B. The protein was eluted from the beads with 100 μL of 0.1 M KOH. […] of the reaction mixture and elution were dried onto a LumaPlate-96 (Packard) and the amount of ³⁵S on the plate was measured using a TopCount NXT instrument (Packard). The amount of fibronectin-based scaffold protein bound to the target was estimated as a percent of radioactivity eluted from Protein A magnetic beads compare to radioactivity in the reaction mixture. Nonspecific binding of fibronectin-based scaffold proteins to the beads was determined by measuring binding in the absence of KDR-Fc and represented less than 1-2% of the input. Specific binding was obtained through subtraction of nonspecific binding from total binding. Data was analyzed using the GraphPad Prizm software (GraphPad Software, Inc, San Diego, Calif.), fitted using a one site, non-linear binding equation.

[14] = biological target: T6, mouse vascular endothelial growth …; assay: radioactive equilibrium binding assay
Procedure: as §4

[15] = biological target: T5, human vascular endothelial growth …; assay: SPR (BIAcore), target immobilized
Procedure: (§5) In vitro affinity measurements were made using surface plasmon resonance (SPR) (BIAcore) with both the human and mouse VEGF-receptor target proteins immobilized via amide chemistry on the BIAcore chip.
as §1

[16] = biological target: T6, mouse vascular endothelial growth …; assay: SPR (BIAcore), target immobilized
Procedure: as §5, §1

HUVEC proliferation assay: decrease in proliferation [1] [%] | Kd [2] [nM] | Kd [3] [nM] | Binding to 1 nM KDR, % [4] [%] | Binding to 1 nM FLK, % [5] [%] | Inhibition of VEGF-induced proliferation, Ba/F3-Flk (IC50, nM) [6] [nM] | Inhibition of VEGF-induced proliferation, Ba/F3-KDR (IC50, nM) [7] [nM] | Inhibition of VEGF-induced proliferation of HUVEC cells (IC50, nM) [8] [nM] | Kd [9] [nM] | koff [9] [s⁻¹] | kon [9] [M⁻¹ s⁻¹] | Kd [10] [nM] | koff [10] [s⁻¹] | kon [10] [M⁻¹ s⁻¹] | Binder | further results
~40 | 1.66 | 2.05 | 27 | 20 |  |  |  |  |  |  |  |  |  | E26 (designed binder, Del 1-8 10Fn3 clone; Tags not included) EVVAATPTSLLISWRHPHFPTRYYRITYGETGGNSPVQEFTVPLQPPTATISGLKPGVDYTITGYAVTVERNGRELMTPISINYRT | 
 |  |  |  |  | 5.3 | 3.2 | 14 | 0.51 | 5.8e-05 | 110000 | 2.14 | 0.000477 | 220000 | E26 (designed binder, Del 1-8 10Fn3 clone; Flag-tagged in vitro translated protein in the radioactive assay, His6-tagged E. coli protein in BIAcore and cell assays; tags left out) EVVAATPTSLLISWRHPHFPTRYYRITYGETGGNSPVQEFTVPLQPPTATISGLKPGVDYTITGYAVTVERNGRELMTPISINYRT | EC50 [11]: 2.6 nM; EC50 [12]: 1.3 nM; Kd [13]: < 1.7 nM; Kd [14]: 2 nM
~40 | 1.51 | 0.91 | 41 | 44 |  |  |  |  |  |  |  |  |  | E29 (designed binder, Del 1-8 10Fn3 clone; Tags not included) EVVAATPTSLLISWRHPHFPTRYYRITYGETGGNSPVQEFTVPLQPPTATISGLKPGVDYTITGYAVTVERNGRVLMTPISINYRT | 
~40 |  |  |  |  |  |  |  |  |  |  |  |  |  | E18 (designed binder) EVVAATPTSLLISWRHPHFPTRYYRITYGETGGNSPVQEFTVPLQPPTATISGLKPGVDYTITGYAVTVERNGRELNTPISINYRT | 
~40 | 1.3 | 0.66 | 38 | 40 |  |  |  |  |  |  |  |  |  | E19 (designed binder, Del 1-8 10Fn3 clone; Tags not included) EVVAATPTSLLISWRHPHFPTRYYRITYGETGGNSPVQEFTVPLQPPTATISGLKPGVDYTITGYAVTVERNGRHLMTPISINYRT | 
 |  |  |  |  | 2.4 | 5.4 | 12.8 | 0.46 | 0.000121 | 260000 | 0.33 | 0.000195 | 600000 | E18 (designed binder, Del 1-8 10Fn3 clone; Flag-tagged in vitro translated protein in the radioactive assay, His6-tagged E. coli protein in BIAcore and cell assays; tags left out) EVVAATPTSLLISWRHPHFPTRYYRITYGETGGNSPVQEFTVPLQPPTATISGLKPGVDYTITGYAVTVERNGRELNTPISINYRT | EC50 [11]: 4.2 nM; EC50 [12]: 0.9 nM; Kd [13]: < 1.2 nM; Kd [14]: < 0.5 nM
 |  |  |  |  |  |  |  |  |  |  |  |  |  | M5FL C100 (designed binder, unmodified M5FL with C-terminal extension, Cys100 and His tag; a significant percentage is produced with the initial methionine removed; also called C100-form of the M5FL protein) MGVSDVPRDLEVVAATPTSLLISWRHPHFPTRYYRITYGETGGNSPVQEFTVPLQPPLATISGLKPGVDYTITVYAVTKERNGRELFTPISINYRTEIDKPCQHHHHHH | Kd [15]: 0.9 nM; koff [15]: 6.7e-05 s⁻¹; kon [15]: 74000 M⁻¹ s⁻¹; Kd [16]: 2.1 nM; koff [16]: 0.0003 s⁻¹; kon [16]: 146000 M⁻¹ s⁻¹
 |  |  |  |  |  |  |  |  |  |  |  |  |  | M5FL-PEG20 (designed binder, linear 20 kD PEG coupled by maleimide chemistry to the cysteine residue at position 100, also called M5FL 20K PEG) MGVSDVPRDLEVVAATPTSLLISWRHPHFPTRYYRITYGETGGNSPVQEFTVPLQPPLATISGLKPGVDYTITVYAVTKERNGRELFTPISINYRTEIDKPCQHHHHHH | Kd [15]: 5.9 nM; koff [15]: 5.4e-05 s⁻¹; kon [15]: 9000 M⁻¹ s⁻¹; Kd [16]: 22.8 nM; koff [16]: 0.00055 s⁻¹; kon [16]: 24000 M⁻¹ s⁻¹
 |  |  |  |  | 5.1 | 3.9 | 8.5 | 0.89 | 9.2e-05 | 100000 | 2.1 | 0.000582 | 280000 | M5FL (designed binder, extension and tag left out) VSDVPRDLEVVAATPTSLLISWRHPHFPTRYYRITYGETGGNSPVQEFTVPLQPPLATISGLKPGVDYTITGYAVTKERNGRELFTPISINYRT | 
